US20240002500A1 (GUANGDONG FAPON BIOPHARMA, published 2024)

T1: human Tigit extracellular domain recombinant protein hTigit-his (Acrobiosystem, Cat.TIT-H2H3) (human, UniProt Q495A1 22-141)
T1 construct: extracellular domain; Bought; not shown: his tag
T1 sequence (looked up): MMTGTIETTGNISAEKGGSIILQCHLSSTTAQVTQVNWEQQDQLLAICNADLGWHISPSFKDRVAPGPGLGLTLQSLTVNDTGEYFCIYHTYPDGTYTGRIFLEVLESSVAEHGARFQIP

T2: hTIGIT-hFc (human, UniProt Q495A1 22-141)
T2 construct: also called antigen protein hTIGIT-hFc; human TIGIT recombinant protein carrying a human Fc tag; not shown: human Fc tag
T2 sequence (looked up): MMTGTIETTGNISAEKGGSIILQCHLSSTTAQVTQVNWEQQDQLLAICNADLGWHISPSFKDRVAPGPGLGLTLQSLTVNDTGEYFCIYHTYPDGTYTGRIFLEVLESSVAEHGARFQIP

T3: full-length human TIGIT on cells (human, UniProt Q495A1 22-244)
T3 construct: whole, on cells; The same protein is used for CHO-hTIGIT, PBMC and NK92-hTIGIT; the cells are named under assay; also called CHO-hTIGIT; hTIGIT
T3 sequence (looked up): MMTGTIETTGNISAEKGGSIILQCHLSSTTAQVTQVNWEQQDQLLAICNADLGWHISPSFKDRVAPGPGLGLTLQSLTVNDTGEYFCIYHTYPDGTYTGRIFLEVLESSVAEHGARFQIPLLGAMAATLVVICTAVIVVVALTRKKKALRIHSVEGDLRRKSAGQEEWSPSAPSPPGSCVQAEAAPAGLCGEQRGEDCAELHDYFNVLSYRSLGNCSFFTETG


What was measured:
[1] = molecular target: T1, human Tigit extracellular domain …; test: BLI epitope binning (ForteBIO QKe), hTigit-his on anti-Penta-HIS sensor; competitor R0223
Method: Epitope competition analysis was performed on an anti-human TIGIT antibody with an MD ForteBIO QKe platform. An experimental method included: a human Tigit extracellular domain recombinant protein hTigit-his (Acrobiosystem, Cat.TIT-H2H3, lot-1336-76GF1-F9) carrying a his tag was diluted with an equilibration buffer (1×PBS+0.02% Tween 20), until the final concentration was 1.5 μg/ml. The anti-human Tigit antibody was diluted with the equilibration buffer (1×PBS+0.02% Tween 20), the final concentration being 5 μg/ml. After an anti-Penta-HIS biosensor (ForteBIO, Cat. 18-5122) was fully hydrated, first the hTigit-his recombinant protein was solidified for 180 seconds, then equilibrated for 30 seconds, and bound to the first anti-human Tigit antibody for 180 seconds, then equilibrated for 30 seconds, and then bound to the second anti-human Tigit antibody, binding time being 300 seconds. The whole reaction was performed at 25° C. and 1000 rpm; and finally, Octet analysis software was used to perform epitope binning analysis.

[2] = molecular target: T2, hTIGIT-hFc; test: FACS blocking: antibody preincubated with hTIGIT-hFc, then CHO-hPVR cells, PE anti-human IgG Fc; blocked partner PVR on cells
Method: The CHO-engineered cells CHO-hPVR cells recombinantly expressing full-length human PVR were counted centrifugated at 300 g for 5 min, resuspended with an FCM buffer, the cells were added to the 96-well V-shaped plate; the volume of each cell added into a 96-well V-shaped plate was 2E+05 cell/well (being added in 50 μL/well); and incubation was performed in dark on ice for 30 min. Centrifugation (300 g/5 min) was performed; supernatant was discarded; 200 μL of the FCM buffer was added for washing once; centrifugation (300 g/5 min) was performed; and the supernatant was discarded. Secondary antibodies (PE anti-human IgG Fc, 1:500 dilution) were added to the 96-well V-shaped plate (in 100 μL/well); and incubation was performed in dark on ice for 30 min. Centrifugation (300 g/5 min) was performed; supernatant was discarded; 200 μL of the FCM buffer was added for washing once; centrifugation (300 g/5 min) was performed; and the supernatant was discarded. 100 μL of the 1×PBS was added for resuspending, and on-machine detection was performed.

[3] = molecular target: T3, full-length human TIGIT on cells; test: FACS titration on CHO-hTIGIT cells; table under the plot, unit taken from the x axis Log[nM]
Method: The CHO-engineered cells CHO-hTIGIT cells recombinantly expressing full-length human TIGIT to be detected were counted, centrifuged at 300 g for 5 min, resuspended in an FCM buffer and cell density was adjusted to 4E+06 cell/mL for later use. A sample to be detected (including a positive control antibody and a mouse monoclonal antibody) was diluted with the FCM buffer to 20 μg/mL, and then the FCM buffer was used to perform 3× serial dilutions of 12 concentration points; and the isotype control antibody was diluted with the FCM buffer to 20 μg/mL. According to an experimental design, in each well, 50 μL of the antibody and 50 μL of the cell (the amount of each cell added into a 96-well V-shaped plate being 2E+05 cells/well) were respectively added in the 96-well V-shaped plate; and incubation in dark was performed on ice for 30 min. Centrifugation (300 g/5 min) was performed; supernatant was discarded; 200 μL of the FCM buffer was added for washing once; centrifugation (300 g/5 min) was performed; and the supernatant was discarded. […] Centrifugation (300 g/5 min) was performed; supernatant was discarded; 200 μL of the FCM buffer was added once for washing once; centrifugation (300 g/5 min) was performed; and the supernatant was discarded. 100 μL of the 1×PBS was added for resuspending, and on-machine detection was performed.

[4] = molecular target: T2, hTIGIT-hFc; test: FACS blocking: hTIGIT-hFc bound on U2-OS cells (PVR and CD112), then antibody, APC anti-human IgG Fc; first row of the table, row head not given; unit from the x axis Log[µg/mL]
Method: U2-OS cells to be detected (human osteosarcoma cells, naturally and highly expressing PVR and CD112 by means of detection) were counted; centrifugated at 300 g for 5 min; resuspended with an FCM buffer; and cell density was adjusted to 4E+06 cell/mL for later use. […] According to an experimental design, in each well, 50 μL of the antigen protein and 50 μL of the cell (the volume of each cell added into a 96-well V-shaped plate being 2E+05 cell/well) were respectively added in the 96-well V-shaped plate; and incubation was performed in dark on ice for 30 min. Centrifugation (300 g/5 min) was performed; supernatant was discarded; 200 μL of the FCM buffer was added for washing once; centrifugation (300 g/5 min) was performed; and the supernatant was discarded. The antibody was added to the 96-well V-shaped plate (in 100 μL/well); and incubation was performed in dark on ice for 30 min. Centrifugation (300 g/5 min) was performed; supernatant was discarded; 200 μL of the FCM buffer was added for washing once; centrifugation (300 g/5 min) was performed; and the supernatant was discarded. Secondary antibodies (APC anti-human IgG Fc, 1:500 dilution) were added to the 96-well V-shaped plate (in 100 μL/well); and incubation was performed in dark on ice for 30 min. Centrifugation (300 g/5 min) was performed; supernatant was discarded; 200 μL of the FCM buffer was added for washing once; centrifugation (300 g/5 min) was performed; and the supernatant was discarded. 100 μL of the 1×PBS was added for resuspending, and on-machine detection was performed.

Row | epitope binning signal (name and unit not given) [1] | IC50 (read off the curve) [2] [nM] | EC50 [3] [nM] | IC50 [4] [µg/mL] | Binder
1 | 0.0443 | ~1 | 0.256 | – | Tigit-5 mouse monoclonal antibody (antibody, V domains shown, Mouse monoclonal antibody from hybridoma) VH: QVQLQQPGAELVRPGASVKLSCKASGYSFTSYWMNWVKQRPGQGLEWIGMIRPSDSETRLNQMFKDKATLTVDKSSSTAYMQLSSPTSDDSAVYYCAGIHDYGHGAYWGQGTLVTVSA VL: DIQMIQSPASLSVSVGETVTITCRASENIYSNLAWYQQKQGKSPQLLVYAASHLPDGVPSRFSGSGSGTQYSLKINSLQSEDFGSYYCQHFWGTPRTFGGGTKLEIKR
2 | 0.008 | ~1 | 0.294 | 0.636 | 3Tigit-16 mouse monoclonal antibody (antibody, V domains shown, Mouse monoclonal antibody from hybridoma) VH: EVQLQQSGPELVKPGASVKMSCKASGFTFTDYFMDWVKQSRGASFEWIGRLNPNNGRTSYNQKFKGKATLTVDKSSSTAYMELNSLTSEDSAVYYCARGDLGRWYFDVWGAGTTVTVSS VL: QIVLTQSPAIMSASPGEKVTMTCSASSSVSYMHWYQQKSGTSPKRWIYDTSKLASGVPTRFSGSGSGTSYSLTISSMEAEDAASYFCQQWSSNSLTFGAGTKLELKR
3 | -0.0018 | ~1 | 0.31 | 0.628 | 3Tigit-29 mouse monoclonal antibody (antibody, V domains shown, Mouse monoclonal antibody from hybridoma) VH: EVQLQQSGPELVKPGASVKISCKASGYTFTDYNMHWVKQSLGKSLEWIGYVNSFNGNTGYSQKFKSKVTLTVDRSSRTAYMDLRSLTSEDSAVFYCARSSRGGFAYWGQGTLVTVSA VL: QIVLTQSPAIMSASPGEKVTMTCSASSSVSYMHWYQQKSGTSPKRWIYDTSKLASGVPARFSGSVSGTSYSLTISSMEAEDAATYYCQQWSSNSLTFGAGTKLELKR
4 | 0.01 | – | – | 0.543 | 3Tigit-12 mouse monoclonal antibody (antibody, V domains shown, Mouse monoclonal antibody from hybridoma) VH: QVQLQQSGAELVRPGTSVKMSCKAAGYTFTNYWIGWVKQRPGHGLEWIGDIYPGGGYTNYDEKFKGKATLTADTSSRTAYMQLSSLTSEDSAIYHCVNGGYGSTYGYFDVWGAGTTVTVSS VL: DIVMSQSPSSLPVSVGEKVTMSCKSSQSLLFSSDQKNYLAWYQQKPGQSPKLLIYWASTRESGVPDRLTGSGSGTDFTLTISSVKAEDLAVYYCQQYHKYPFTFGGGTKLEIKR
